Reference: patent US20060253917A1 (published 2006)
Changes are numbered by the printed parent chain.

How the values were obtained:
[1] = molecular target: T1, OsMADS1 aa 74-172 (Oryza sativa, UniProt A2XDY1 74-172); assay: Y2H; input trait library
T1 construct: prey, AD fusion; also called PN19788
T1 sequence: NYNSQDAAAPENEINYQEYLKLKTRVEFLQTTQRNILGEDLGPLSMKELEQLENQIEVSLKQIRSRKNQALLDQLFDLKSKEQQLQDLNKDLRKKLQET
How it was run: (§1)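 Myriad Genetics Inc. (Salt Lake City, Utah) supplied the automated, high-throughput yeast two-hybrid assay used to detect protein-protein interactions. A bait clone encoding a defined amino-acid fragment of a rice protein was screened against a rice prey library, either the input trait or the output trait library. To identify the interacting proteins, prey clones were retrieved and their encoding sequences were compared against databases by BLAST.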

[2] = molecular target: T2, OsPN29956 aa 2-373 (Oryza sativa, UniProt Q0JJ05 519-890); assay: Y2H; output trait library
T2 construct: prey, AD fusion
T2 sequence: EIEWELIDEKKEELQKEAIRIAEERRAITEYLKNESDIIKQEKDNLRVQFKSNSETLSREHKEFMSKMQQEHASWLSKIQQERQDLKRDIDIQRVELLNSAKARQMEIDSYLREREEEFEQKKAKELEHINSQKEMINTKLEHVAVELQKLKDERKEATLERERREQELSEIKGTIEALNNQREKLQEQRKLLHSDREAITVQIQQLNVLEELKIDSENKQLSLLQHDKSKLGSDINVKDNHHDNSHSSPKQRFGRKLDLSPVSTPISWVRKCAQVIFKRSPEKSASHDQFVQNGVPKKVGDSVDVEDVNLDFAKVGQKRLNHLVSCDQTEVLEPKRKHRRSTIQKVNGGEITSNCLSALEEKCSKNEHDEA
How it was run: as §1

[3] = molecular target: T3, OsPN29956 aa 96-235 (Oryza sativa, UniProt Q0JJ05 613-752); assay: Y2H; output trait library
T3 construct: prey, AD fusion; also called Novel Protein PN29956, Fragment, nuclear matrix constituent
T3 sequence: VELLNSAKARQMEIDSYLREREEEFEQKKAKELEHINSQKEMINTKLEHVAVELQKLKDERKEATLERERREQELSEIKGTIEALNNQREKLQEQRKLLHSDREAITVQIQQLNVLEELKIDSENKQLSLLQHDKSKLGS
How it was run: as §1

[4] = molecular target: T4, OsPN29969 aa 16-123 (Oryza sativa, UniProt A2XK00 17-123); assay: Y2H; output trait library
T4 construct: prey, AD fusion; also called Novel Protein PN29969, Similar to A. thaliana Unknown Protein BAB01990
T4 sequence: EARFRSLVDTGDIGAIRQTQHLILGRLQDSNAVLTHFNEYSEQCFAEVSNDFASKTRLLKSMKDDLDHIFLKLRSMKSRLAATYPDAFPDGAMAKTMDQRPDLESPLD
How it was run: as §1

[5] = molecular target: T5, OsPN23390 aa 595-845 (Oryza sativa, UniProt Q7XPJ0 617-867); assay: Y2H; output trait library
T5 construct: prey, AD fusion
T5 sequence: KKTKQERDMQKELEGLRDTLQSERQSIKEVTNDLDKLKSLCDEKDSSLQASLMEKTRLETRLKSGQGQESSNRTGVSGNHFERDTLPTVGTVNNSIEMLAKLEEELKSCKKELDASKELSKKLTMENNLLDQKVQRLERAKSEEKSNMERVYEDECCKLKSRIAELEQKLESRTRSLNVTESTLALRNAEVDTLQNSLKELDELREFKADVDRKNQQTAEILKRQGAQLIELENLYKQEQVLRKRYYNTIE
How it was run: as §1

[6] = molecular target: T6, OsPN29965 aa 12-124 (Oryza sativa, UniProt Q6YZ52 874-986); assay: Y2H; output trait library
T6 construct: prey, AD fusion; also called Novel Protein PN29965, Fragment, Similar to A. thaliana Kinesin (Centromere Protein)-Like Heavy Chain-Like Protein
T6 sequence: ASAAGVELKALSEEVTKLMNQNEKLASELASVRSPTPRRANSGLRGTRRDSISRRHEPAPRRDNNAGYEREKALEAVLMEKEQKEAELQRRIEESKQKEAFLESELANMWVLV
How it was run: as §1

[7] = molecular target: T7, OsPN23390 aa 576-738 (Oryza sativa, UniProt Q7XPJ0 598-760); assay: Y2H; output trait library
T7 construct: prey, AD fusion
T7 sequence: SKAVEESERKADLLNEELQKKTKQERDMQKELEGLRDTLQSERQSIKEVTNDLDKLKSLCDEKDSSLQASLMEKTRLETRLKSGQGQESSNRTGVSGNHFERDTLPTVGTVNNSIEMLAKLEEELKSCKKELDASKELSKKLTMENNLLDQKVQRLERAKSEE
How it was run: as §1

[8] = molecular target: T8, OsPN25381 aa 30-218 (Oryza sativa, UniProt A3BV82 165-353); assay: Y2H; output trait library
T8 construct: prey, AD fusion; also called Protein 13357265 Putative CorA-like Mg2+ Transporter Protein
T8 sequence: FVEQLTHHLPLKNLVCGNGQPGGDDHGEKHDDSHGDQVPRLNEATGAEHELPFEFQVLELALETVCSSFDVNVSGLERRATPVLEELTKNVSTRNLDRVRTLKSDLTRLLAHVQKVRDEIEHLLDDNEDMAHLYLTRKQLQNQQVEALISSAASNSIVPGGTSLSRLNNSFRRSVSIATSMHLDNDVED
How it was run: as §1

[9] = molecular target: T9, PN29970 aa 1-158 (Oryza sativa, UniProt A2WY50 120-277); assay: Y2H; output trait library
T9 construct: prey, AD fusion; also called Putative CorA-like Mg2+ Transporter Protein
T9 sequence: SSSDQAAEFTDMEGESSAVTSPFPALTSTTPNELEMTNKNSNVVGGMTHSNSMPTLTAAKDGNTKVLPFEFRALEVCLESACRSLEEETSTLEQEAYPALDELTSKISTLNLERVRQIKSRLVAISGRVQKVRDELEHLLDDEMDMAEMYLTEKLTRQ
How it was run: as §1

[10] = molecular target: T10, OsMADS1 aa 82-241 (Oryza sativa, UniProt A2XDY1 82-241); assay: Y2H; output trait library
T10 construct: prey, AD fusion; also called PN19788; O. sativa MADS box protein MADS1
T10 sequence: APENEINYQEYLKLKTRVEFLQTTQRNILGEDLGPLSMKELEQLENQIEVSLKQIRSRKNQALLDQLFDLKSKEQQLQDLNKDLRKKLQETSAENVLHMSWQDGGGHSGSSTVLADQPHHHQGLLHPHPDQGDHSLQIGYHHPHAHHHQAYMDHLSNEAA
How it was run: as §1

[11] = molecular target: T11, OsFDRMADS6 aa 93-244 (Oryza sativa, UniProt P0C5B1 93-244); assay: Y2H; output trait library
T11 construct: prey, AD fusion; also called PN19766
T11 sequence: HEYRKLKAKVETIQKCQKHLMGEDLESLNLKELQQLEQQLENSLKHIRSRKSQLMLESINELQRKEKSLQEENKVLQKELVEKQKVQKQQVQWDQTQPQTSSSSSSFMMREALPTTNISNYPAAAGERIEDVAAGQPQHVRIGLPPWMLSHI
How it was run: as §1

[12] = molecular target: T12, OsMADS6 aa 70-250 (Oryza sativa, UniProt Q6EU39 70-250); assay: Y2H; output trait library
T12 construct: prey, AD fusion; also called PN20233; O. sativa MADS box protein MADS6
T12 sequence: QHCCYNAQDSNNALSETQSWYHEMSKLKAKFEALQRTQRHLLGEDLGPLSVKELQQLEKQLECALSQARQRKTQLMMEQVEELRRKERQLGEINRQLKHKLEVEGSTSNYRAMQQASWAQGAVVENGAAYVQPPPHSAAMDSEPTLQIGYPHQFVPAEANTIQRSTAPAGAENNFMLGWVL
How it was run: as §1

[13] = molecular target: T13, OsRAP1B aa 1-158 (Oryza sativa, UniProt Q10CQ1 1-158); assay: Y2H; output trait library
T13 construct: prey, AD fusion; also called PN20232; O. sativa AP1-like MADS box protein RAP1B
T13 sequence: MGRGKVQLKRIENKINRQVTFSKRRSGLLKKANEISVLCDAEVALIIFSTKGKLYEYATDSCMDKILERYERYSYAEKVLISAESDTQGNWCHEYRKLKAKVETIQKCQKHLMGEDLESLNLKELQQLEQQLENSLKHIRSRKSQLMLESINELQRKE
How it was run: as §1

[14] = molecular target: T14, OsMADS1 aa 71-257 (Oryza sativa, UniProt A2XDY1 71-257); assay: Y2H; output trait library
T14 construct: prey, AD fusion; also called PN19788
T14 sequence: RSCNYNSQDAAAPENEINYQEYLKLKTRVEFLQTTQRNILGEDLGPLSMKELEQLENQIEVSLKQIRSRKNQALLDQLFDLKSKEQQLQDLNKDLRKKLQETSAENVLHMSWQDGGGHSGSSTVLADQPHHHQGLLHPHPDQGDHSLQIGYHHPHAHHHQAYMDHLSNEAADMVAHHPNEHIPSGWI
How it was run: as §1

[15] = molecular target: T15, OsFDRMADS6 aa 100-246 (Oryza sativa, UniProt P0C5B1 100-246); assay: Y2H; output trait library
T15 construct: prey, AD fusion; also called PN19766
T15 sequence: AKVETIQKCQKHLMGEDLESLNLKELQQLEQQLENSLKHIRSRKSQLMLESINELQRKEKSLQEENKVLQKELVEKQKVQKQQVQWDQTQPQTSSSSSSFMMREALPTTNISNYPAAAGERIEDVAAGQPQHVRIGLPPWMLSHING
How it was run: as §1

[16] = molecular target: T16, OsFDRMADS8 aa 94-230 (Oryza sativa, UniProt A2Z9Q7 94-230); assay: Y2H; output trait library
T16 construct: prey, AD fusion; also called PN20698
T16 sequence: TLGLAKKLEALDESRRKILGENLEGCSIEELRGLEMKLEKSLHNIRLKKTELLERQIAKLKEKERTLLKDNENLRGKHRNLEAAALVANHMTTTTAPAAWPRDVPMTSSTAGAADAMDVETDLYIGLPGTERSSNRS
How it was run: as §1

[17] = molecular target: T17, OsMADS8 aa 127-248 (Oryza sativa, UniProt Q9SAR1 127-248); assay: Y2H; output trait library
T17 construct: prey, AD fusion; also called PN20778
T17 sequence: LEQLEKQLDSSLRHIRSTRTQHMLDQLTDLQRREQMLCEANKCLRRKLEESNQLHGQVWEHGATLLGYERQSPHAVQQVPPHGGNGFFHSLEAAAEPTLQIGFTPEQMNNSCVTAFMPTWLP
How it was run: as §1

[18] = molecular target: T18, OsFDRMADS8 aa 69-233 (Oryza sativa, UniProt A2Z9Q7 69-233); assay: Y2H; input trait library
T18 construct: prey, AD fusion; also called PN20698
T18 sequence: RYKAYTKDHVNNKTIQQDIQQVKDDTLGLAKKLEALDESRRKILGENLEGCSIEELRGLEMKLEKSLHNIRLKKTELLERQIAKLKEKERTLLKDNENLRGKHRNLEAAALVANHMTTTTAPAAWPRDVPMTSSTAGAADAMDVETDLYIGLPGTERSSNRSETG
How it was run: as §1

[19] = molecular target: T19, OsMADS1 aa 95-257 (Oryza sativa, UniProt A2XDY1 95-257); assay: Y2H; input trait library
T19 construct: prey, AD fusion; also called PN19788
T19 sequence: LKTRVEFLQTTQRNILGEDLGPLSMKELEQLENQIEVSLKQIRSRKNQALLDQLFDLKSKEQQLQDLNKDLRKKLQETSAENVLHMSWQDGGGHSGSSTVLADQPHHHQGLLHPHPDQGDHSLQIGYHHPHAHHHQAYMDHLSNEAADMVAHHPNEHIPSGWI
How it was run: as §1

Measured: binding result

B1: OsRAP1B aa 65-200 (other)
chain: KILERYERYSYAEKVLISAESDTQGNWCHEYRKLKAKVETIQKCQKHLMGEDLESLNLKELQQLEQQLENSLKHIRSRKSQLMLESINELQRKEKSLQEENKVLQKELVEKQKVQKQQLQWDQTQPQTISSSSSFM
notes: bait, Gal4 DBD fusion; also called PN20232
binds: [1]

B2: OsCYCOS2 aa 50-233 (other)
chain: KRGLLDKPAAKNQSGHRPMTRKFAATLANQPSIAPLAPIGSERQKRTADSAFHGPADMECTKITSDDLPLPMMSEMDEVMGSELKEIEMEDIEEAAPDIDSCDANNSLAVVEYVDEIYSFYRRSEGLSCVSPNYMLSQNDINEKMRGILIDWLIEVHYKLELLDETLFLTVNIIDRFLARENVV
notes: bait, Gal4 DBD fusion; also called PN20257; O. sativa Cyclin OsCYCOS2
binds: [2] | [3] | [4] | [5] | [6] | [7] | [8] | [9]

B3: OsMADS45 aa 50-198 (other)
chain: NRGKLYEFCSTQSMTKTLEKYQKCSYAGPETAVQNRESEQLKASRNEYLKLKARVENLQRTQRNLLGEDLDSLGIKELESLEKQLDSSLKHVRTTRTKHLVDQLTELQRKEQMVSEANRCLRRKLEESNHVRGQQVWEQGCNLIGYERQ
notes: bait, Gal4 DBD fusion; also called PN20231; O. sativa MADS box protein MADS45
binds: [10] | [11] | [12] | [13] | [14]

B4: OsRAP1B aa 100-247 (other)
chain: T15 sequence with V84L, S94I, A126P
notes: as for B1
binds: [15] | [16] | [17] | [18] | [19]
